Experimental data taken from patent publication US20220411487A1.

Biological target: catalytically inactive full length human TMPRSS6 on HEK293 cells (HEK293/hTMPRSS6 (S762A)) (human) (UniProt Q8IU80)
Experiment: flow cytometry, HEK293 cells expressing target

catalytically inactive full length human TMPRSS6 on HEK293 cells (HEK293/hTMPRSS6 (S762A)) (human), sequence (Q8IU80 10-811 S762A): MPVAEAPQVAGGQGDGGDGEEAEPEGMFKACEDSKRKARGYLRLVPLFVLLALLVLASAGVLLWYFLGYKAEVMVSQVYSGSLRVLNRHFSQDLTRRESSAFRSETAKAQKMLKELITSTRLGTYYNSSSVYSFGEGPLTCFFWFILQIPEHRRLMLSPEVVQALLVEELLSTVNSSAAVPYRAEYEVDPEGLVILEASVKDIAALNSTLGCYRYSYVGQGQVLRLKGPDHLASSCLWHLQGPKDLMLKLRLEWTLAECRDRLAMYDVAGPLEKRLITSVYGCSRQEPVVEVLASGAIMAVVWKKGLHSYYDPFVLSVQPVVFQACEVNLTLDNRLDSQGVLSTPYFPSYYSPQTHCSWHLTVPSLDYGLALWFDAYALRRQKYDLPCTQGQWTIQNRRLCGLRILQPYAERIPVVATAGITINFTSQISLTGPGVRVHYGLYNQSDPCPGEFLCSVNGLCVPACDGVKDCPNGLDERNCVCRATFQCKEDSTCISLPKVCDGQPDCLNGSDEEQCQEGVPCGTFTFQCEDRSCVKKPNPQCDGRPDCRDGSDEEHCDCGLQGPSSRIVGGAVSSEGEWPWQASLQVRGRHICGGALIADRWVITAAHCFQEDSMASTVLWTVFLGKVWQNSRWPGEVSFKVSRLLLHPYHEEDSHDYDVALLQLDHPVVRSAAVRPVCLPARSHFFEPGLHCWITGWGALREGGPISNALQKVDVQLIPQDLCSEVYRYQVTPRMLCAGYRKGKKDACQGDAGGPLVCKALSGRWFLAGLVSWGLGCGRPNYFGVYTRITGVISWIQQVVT

- EC50: 2 nM
- Max. Fold Binding (fold over unstained control): 300
B1: REGN8023 (antibody, human IgG4 S228P, kappa, V domains shown)
VH: EVQLVESGGGLVKPGGSLRISCAASGFIFVDYAMHWVRQAPGKGLEWVSGISWNSGSIGYADSVKGRFTISRDNAKKSLYLQMSGLRPEDTALYYCVKSGFYYVRSYFDNWGQGTLVTVSS
VL: DIVMTQSPLSLPVTPGEPASISCRSSQSLLDSDDGNTYLDWYLRKPGQSPQLLIYTLSYRASGVPDRFSGSGSGTDFTLKISRVEADDVGVYYCMQRIEFPLTFGGGTKVEIKR
